T1: human CD5 cell differentiation marker (human, UniProt P06127 25-495)
T1 sequence: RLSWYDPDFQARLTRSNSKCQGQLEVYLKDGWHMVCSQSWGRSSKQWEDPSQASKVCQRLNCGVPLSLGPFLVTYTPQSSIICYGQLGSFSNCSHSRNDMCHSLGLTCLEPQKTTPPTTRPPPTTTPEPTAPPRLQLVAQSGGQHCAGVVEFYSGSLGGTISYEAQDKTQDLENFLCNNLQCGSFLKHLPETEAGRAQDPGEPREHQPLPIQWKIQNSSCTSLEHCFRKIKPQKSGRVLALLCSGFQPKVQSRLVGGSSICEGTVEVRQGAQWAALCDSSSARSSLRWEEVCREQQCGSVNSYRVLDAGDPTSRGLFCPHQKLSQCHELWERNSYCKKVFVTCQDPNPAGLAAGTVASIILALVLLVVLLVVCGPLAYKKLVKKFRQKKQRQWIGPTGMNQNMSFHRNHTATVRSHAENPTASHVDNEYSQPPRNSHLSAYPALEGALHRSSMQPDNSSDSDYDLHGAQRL

B1: he3Fab-rGelA50(C44) (other)
light: DIQMTQSPSSLSASVGDRVTITCRASQDINSYLSWFQQKPGKAPKTLIYRANRLESGVPSRFSGSGSGTDYTLTISSLQYEDFGIYYCQQYDESPWTFGGGTKLEIK
heavy: EIQLVQSGGGLVKPGGSVRISCAASGYTFTNYGMNWVRQAPGKGLEWMGWINTHTGEPTYADSFKGRFTFSLDDSKNTAYLQINSLRAEDTAVYFCTRRGYDWYFDVWGQGTTVTVSS
chain: GLDTVSFSTKGATYITYVNFLNELRVKLKPEGNSHGIPLLRKKCDDPGKAFVLVALSNDNGQLAEIAIDVTSVYVVGYQVRNRSYFFKDAPDAAYEGLFKNTIKTRLHFGGSYPSLEGEKAYRETTDLGIEPLRIGIKKLDENAIDNYKPTEIASSLLVVIQMVSEAARFTFIENQIRNNFQQRIRPANNTISLENKWGKLSFQIRTSGANGMFSEAVELERANGKKYYVTAVDQVKPKIALLKFVDKDPK
B2: he3 IgG (human-engineered H65 antibody, moderate-risk changes, ATCC HB 11206) (antibody, V domains shown)
VH: B1 heavy
VL: B1 light
notes: also called he3 antibody; humanized antibody
B3: chimeric H65 IgG (antibody, V domains shown)
VL: […]
VH: QIQLVQSGPELKKPGETVKISCKASGYTFTNYGMNWVKQAPGKGLRWMGWINTHTGEPTYADDFKGRFAFSLETSASTAYLQINNLKNEDTATYFCTRRGYDWYFDVWGAGTTVTVSS
notes: also called 125I-cH65 IgG

What was measured:
[1] = molecular target: T1, human CD5 cell differentiation marker; assay: cell-based or functional assay
[2] = molecular target: T1, human CD5 cell differentiation marker; assay: competition with 125I-cH65 IgG on Molt-4M cells

Row | Binder | IC50 (pMT), whole cell cytotoxicity, CEM Cells [1] [pMT] | IC50 (pMT), whole cell cytotoxicity, HSB2 Cells [1] [pMT] | binding result [2]
1 | B1 | 173 | 165 | –
2 | B2 | – | – | binds
3 | B3 | – | – | binds

— patent US20030166196A1 (published 2003)
